B1: STK38L (parent)
chain: FCIDSENRIGNSGVEEIKGHPFFE

Variants of: B1
Assay: protein stability index of a GFP-peptide fusion (GPS, HEK-293T) (PSI 1-6); higher = more stable
Settings: c terminus: a fixed tail appended
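Also: lentivirally expressed fusions sorted by FACS into six bins by GFP to DsRed ratio, PSI derived from sequencing read proportions per bin multiplied by bin number.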

Variant | protein stability index
FCIDSENRIGNSGVEEIKGHAFFE | 2.72
FCIDSENRIGNSGVEEIKGHEFFE | 3.52
FCIDSENRIGNSGVEEIKGHDFFE | 4.22
FCIDSENRIGNSGVEEIKGHCFFE | 2.07
FCIDSENRIGNWGVEEIKGHPFFE | 1.5
FCIDSENRIGNMGVEEIKGHPFFE | 1.72
FCIDSENRIGNKGVEEIKGHPFFE | 2.78
FCIDSENRIGNIGVEEIKGHPFFE | 2.35
FCIDSENRIGNQGVEEIKGHPFFE | 2.2
FCIDSENRIGNFGVEEIKGHPFFE | 1.84
FCIDSENRIGNEGVEEIKGHPFFE | 2.52
FCIDSENRIGNPGVEEIKGHPFFE | 2.32
FCIDSENRIGNGGVEEIKGHPFFE | 1.91
FCIDSENRIGNRGVEEIKGHPFFE | 2.35
FCIDSENRIGNHGVEEIKGHPFFE | 2.56
FCIDSENRIGNTGVEEIKGHPFFE | 2.52
FCIDSENRIGNVGVEEIKGHPFFE | 2
FCIDSENRIGNDGVEEIKGHPFFE | 2.32
FCIDSENRIGNYGVEEIKGHPFFE | 1.99
FCIDSENRIGNNGVEEIKGHPFFE | 2.55
FCIDSENRIGNLGVEEIKGHPFFE | 1.9
FCIDSENRIGNAGVEEIKGHPFFE | 1.98
FCIDSENRIGNSGVEPIKGHPFFE | 2.42
FCIDSENRIGNSGVECIKGHPFFE | 2.23

Variant | protein stability index
FCIDSENRIGNSGVEDIKGHPFFE | 1.89
FCIDSENRIGNSGVEFIKGHPFFE | 2.25
FCIDSENRIGNSGVEWIKGHPFFE | 1.44
FCIDSENRIGNSGVEHIKGHPFFE | 2.22
FCIDSENRIGNSGVEVIKGHPFFE | 1.87
FCIDSENRIGNSGVEYIKGHPFFE | 1.51
FCIDSENRIGNSGVERIKGHPFFE | 2.3
FCIDSENRIGNSGVESIKGHPFFE | 1.85
FCIDSENRIGNSGVEQIKGHPFFE | 2.54
FCIDSENRIGNSGVEMIKGHPFFE | 2.28
FCIDSENRIGNSGVEAIKGHPFFE | 3.21
FCIDSENRIGNSGVEIIKGHPFFE | 1.55
FCIDSENRIGNSGVELIKGHPFFE | 1.79
FCIDSENRIGNSGVETIKGHPFFE | 2.35
FCIDSENRIGNSGVENIKGHPFFE | 2.06
FCIDSENRIGNSGVEGIKGHPFFE | 2.67
FCIDSENRIGNSGVEKIKGHPFFE | 1.98
FCIDSENRIGNSGVEEIKGTPFFE | 3.83
FCIDSENRIGNSGVEEIKGQPFFE | 3.48
FCIDSENRIGNSGVEEIKGEPFFE | 4.12
FCIDSENRIGNSGVEEIKGVPFFE | 3.19
FCIDSENRIGNSGVEEIKGGPFFE | 3.09
FCIDSENRIGNSGVEEIKGYPFFE | 2.47
FCIDSENRIGNSGVEEIKGFPFFE | 2.62

Variant | protein stability index
FCIDSENRIGNSGVEEIKGNPFFE | 2.67
FCIDSENRIGNSGVEEIKGDPFFE | 2.53
FCIDSENRIGNSGVEEIKGPPFFE | 3.45
FCIDSENRIGNSGVEEIKGMPFFE | 2.71
FCIDSENRIGNSGVEEIKGLPFFE | 2.69
FCIDSENRIGNSGVEEIKGIPFFE | 2.95
FCIDSENRIGNSGVEEIKGRPFFE | 2.35
FCIDSENRIGNSGVEEIKGKPFFE | 3.41
FCIDSENRIGNSGVEEIKGCPFFE | 1.54
FCIDSENRIGNSGVEEIKGAPFFE | 3.79
FCIDSENRIGNSGVEETKGHPFFE | 3.17
FCIDSENRIGNSGVEEFKGHPFFE | 2.36
FCIDSENRIGNSGVEEDKGHPFFE | 3.1
FCIDSENRIGNSGVEEGKGHPFFE | 2.38
FCIDSENRIGNSGVEEEKGHPFFE | 3.47
FCIDSENRIGNSGVEEKKGHPFFE | 2.35
FCIDSENRIGNSGVEECKGHPFFE | 2.84
FCIDSENRIGNSGVEEWKGHPFFE | 1.67
FCIDSENRIGNSGVEEYKGHPFFE | 2.18
FCIDSENRIGNSGVEEHKGHPFFE | 2.16
FCIDSENRIGNSGVEEQKGHPFFE | 2.53
FCIDSENRIGNSGVEENKGHPFFE | 2.88
FCIDSENRIGNSGVEESKGHPFFE | 3.17
FCIDSENRIGNSGVEERKGHPFFE | 2.1

Variant | protein stability index
FCIDSENRIGNSGVEEMKGHPFFE | 2.79
FCIDSENRIGNSGVEEPKGHPFFE | 2.54
FCIDSENRIGNSGVEELKGHPFFE | 2.61
FCIDSENRIGNSGPEEIKGHPFFE | 2.46
FCIDSENRIGNSGHEEIKGHPFFE | 2.06
FCIDSENRIGNSGFEEIKGHPFFE | 1.6
FCIDSENRIGNSGIEEIKGHPFFE | 2.1
FCIDSENRIGNSGDEEIKGHPFFE | 2.68
FCIDSENRIGNSGTEEIKGHPFFE | 2.29
FCIDSENRIGNSGLEEIKGHPFFE | 1.54
FCIDSENRIGNSGMEEIKGHPFFE | 2.47
FCIDSENRIGNSGREEIKGHPFFE | 2.32
FCIDSENRIGNSGQEEIKGHPFFE | 2.74
FCIDSENRIGNSGCEEIKGHPFFE | 2.27
FCIDSENRIGNSGAEEIKGHPFFE | 3.13
FCIDSENRIGNSGSEEIKGHPFFE | 2.32
FCIDSENRIGNSGEEEIKGHPFFE | 2.96
FCIDSENRIGNSGYEEIKGHPFFE | 2.96
FCIDSENRIGNSGNEEIKGHPFFE | 2.8
FCIDSENRIGNSGWEEIKGHPFFE | 1.96
FCIDSENRIGNSGGEEIKGHPFFE | 2.01
FCIDSENRIGNSGKEEIKGHPFFE | 2.72

— the supplement of paper PMC10567573
